Legend:
[1] = molecular target: bovine luteinizing hormone (bovine, UniProt P01217 25-120; P04651 21-141); assay: ELISA, hormone adsorbed at 2 µg/ml, anti-IgM peroxidase; relative to oLH
Description: (§1) After washing five times, a secondary antibody (peroxidase-coupled mouse anti-IgM, Jackson Laboratories) was incubated for 1 h at 37° C. (100 μl/well). After washing five times, the peroxidase is developed with TMB (100 μl/well), for 30 min at room temperature and then stopped with 1M H₂SO₄ (50 μl/well).

[2] = molecular target: T1, human chorionic gonadotropin (human, UniProt P01215 25-116; P0DN86 21-165); assay: as above
T1 construct: Alpha/beta heterodimer; also called hCG
Description: as §1

[3] = molecular target: porcine luteinizing hormone (porcine, UniProt P01219 25-120; P01232 21-141); assay: as above
Description: as §1

[4] = molecular target: T2, equine choriogonadotropin (eCG) or PMSG (equine, UniProt P01220 25-120; P08751 21-169); assay: ELISA on commercial eCG, antibody at 10 µg/ml
T2 construct: They are written as one protein; also called commercial eCG (Synchro Part, CEVA); purified eCG (6000 IU/mg)
Description: as §1
(§2) In the same way, the antibodies were evaluated on the commercial eCG (Synchro Part, CEVA, Libourne, France) used in treatments for induction of ovulation in sheep and goats. An isotypic control (IgM directed against another type of antigen very remote from the gonadotropic hormones). Each antibody was incubated at a concentration of 10 μg/ml and 1 μg/ml.

[5] = molecular target: T3, ovine luteinizing hormone (ovine, UniProt P01218 25-120; P01231 21-141); assay: cell-based or functional assay
[6] = molecular target: T4, ovine follicle-stimulating hormone (ovine, UniProt P01218 25-120; P01227 20-129); assay: cell-based or functional assay
[7] = molecular target: T4, ovine follicle-stimulating hormone; assay: ELISA, hormone adsorbed at 2 µg/ml, MAb at 0.1-1-10 µg/ml, anti-IgM peroxidase; oFSH is the 100% reference
[8] = molecular target: T3, ovine luteinizing hormone; assay: ELISA, hormone adsorbed at 2 µg/ml, MAb at 0.1-1-10 µg/ml, anti-IgM peroxidase; oLH is the 100% reference
[9] = molecular target: T2, equine choriogonadotropin (eCG) or PMSG; assay: ELISA on adsorbed commercial eCG
Description: as §1, §2

[10] = molecular target: T2, equine choriogonadotropin (eCG) or PMSG; assay: ELISA on commercial eCG, antibody at 1 µg/ml
Description: as §1, §2

[11] = molecular target: porcine follicle-stimulating hormone (porcine, UniProt P01219 25-120; P01228 21-129); assay: ELISA, hormone adsorbed at 2 µg/ml, anti-IgM peroxidase; relative to oFSH
Description: as §1

[12] = molecular target: T5, human follicle-stimulating hormone (human, UniProt P01215 25-116; P01225 19-129); assay: as above
T5 construct: Alpha/beta heterodimer; also called hFSH; human FSH
Description: as §1

[13] = molecular target: bovine follicle-stimulating hormone (bovine, UniProt P01217 25-120; P04837 21-129); assay: as above
Description: as §1

[14] = molecular target: T2, equine choriogonadotropin (eCG) or PMSG; assay: ELISA on purified eCG (6000 IU/mg)

T5 sequence (P01215 25-116, chain 1 of 2): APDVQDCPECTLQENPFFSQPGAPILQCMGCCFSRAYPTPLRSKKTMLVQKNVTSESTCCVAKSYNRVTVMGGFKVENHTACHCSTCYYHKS
T5 sequence (P01225 19-129, chain 2 of 2): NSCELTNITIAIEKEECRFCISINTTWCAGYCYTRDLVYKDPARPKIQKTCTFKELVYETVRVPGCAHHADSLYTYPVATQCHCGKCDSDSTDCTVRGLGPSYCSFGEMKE
T1 sequence (P01215 25-116, chain 1 of 2, other chains not shown): as the sequence (P01215 25-116, chain 1 of 2) above
T2 sequence (P01220 25-120 limits assumed, chain 1 of 2): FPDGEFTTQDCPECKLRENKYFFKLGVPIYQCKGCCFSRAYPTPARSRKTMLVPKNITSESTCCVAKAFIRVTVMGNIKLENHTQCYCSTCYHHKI
T2 sequence (P08751 21-169 limits assumed, chain 2 of 2): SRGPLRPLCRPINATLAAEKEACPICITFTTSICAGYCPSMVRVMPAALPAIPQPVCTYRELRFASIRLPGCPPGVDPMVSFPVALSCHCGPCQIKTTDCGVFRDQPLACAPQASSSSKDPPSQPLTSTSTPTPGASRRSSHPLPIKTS

percentage of cross reaction (OD hormone tested / OD ovine hormone x 100) [1] [%] | percentage of cross reaction (OD hormone tested / OD ovine hormone x 100) [2] [%] | percentage of cross reaction (OD hormone tested / OD ovine hormone x 100) [3] [%] | potentiating effect on cAMP secretion (in vitro bioassay) [5] [%] | potentiating effect on cAMP secretion (in vitro bioassay) [6] [%] | percentage of cross reaction (OD hormone tested / OD ovine hormone x 100) [7] [%] | percentage of cross reaction (OD hormone tested / OD ovine hormone x 100) [8] [%] | percentage of cross reaction (OD hormone tested / OD ovine hormone x 100) [11] [%] | percentage of cross reaction (OD hormone tested / OD ovine hormone x 100) [12] [%] | percentage of cross reaction (OD hormone tested / OD ovine hormone x 100) [13] [%] | Binder | OD [4] [OD] | binding result [9] | OD [10] [OD] | binding result [14]
121 | 72 | 170 | 150 | 150 | 100 | 100 | 100 | 100 | 460 | monoclonal antibody 9A4 A7 D3 (hybridoma CNCM I-4333) (antibody, V domains shown, Hybridoma antibody raised against ovine LH; The VL as determined begins KTQTTSS; also called MAb D3; IgM D3) VH: EVQLQESGAELVRPGTSVKISCKASGYTFTNYWLGWVKQRPGHGLEWIGDIYPGGGYTNYNEKFKGKATLTADTSSSTAYMQLSSLTSEDSAVYFCARTPLYGSSYGGFAYWGQGTLVTVSA VL: KTQTTSSLSASLGDRVTISCSASQGISNYLNWYQQKPDGTVKLLIYYTSSLHSGVPSRFSGSGSGTDYSLTISNLEPEDIATYYCQQYSKLPWTFGGGTKLEIK | 0.091 | no binding (tested: 10 µg/ml and 1 µg/ml) | 0.102 | 
122 | 97 | 168 | 150 | 150 | 100 | 100 | 137 | 100 | 430 | monoclonal antibody 9A4 D4 B6 (hybridoma CNCM I-4334) (antibody, V domains shown, Hybridoma antibody raised against ovine LH; also called MAb B6; IgM B6) VH: EVQLQQSGAELVRPGTSVKISCKASGYTFTNYWLGWVKQRPGHGLEWIGDIYPGGGYTNYNEKFKGKATLTADTSSSTAYMQLSSLTSEDSAVYFCARTPLYGSSYGGFAYWGQGTLVTVSA VL: DIVMTQATSSLSASLGDRVTISCSASQGISNYLNWYQQKPDGTVKLLIYYTSSLHSGVPSRFSGSGSGTDYSLTISNLEPEDIATYYCQQYSKLPWTFGGGTKLEIK | 0.088 | no binding (tested: 10 µg/ml and 1 µg/ml) | 0.078 | 
100 | 68 | 140 |  |  | 100 | 100 | 230 | 113 | 380 | monoclonal antibody 1A6 C4 G11 (hybridoma CNCM I-4332) (antibody, V domains shown, Hybridoma antibody raised against ovine LH; also called MAb G11; IgM G11) VH: EVKLQQSGAELVRPGTSVKISCKASGYTFTNYWLGWVKQRPGHGLEWIGDIYPGGGYTNYNEKFKGKATLTADTSSSTAYMQLSSLTSEDSAVYFCARTPLYGSSYGGFAYWGQGTLVTVSA VL: DIQMTQTTSSLSASLGDRVTISCSASQGISNYLNWYQQKPDGTVKLLIYYTSSLHSGVPSRFSGSGSGTDYSLTISNLEPEDIATYYCQQYSKLPWTFGGGTKLEIK | 0.09 |  | 0.088 | no binding
